The values that follow come from PMC4548480, “Structures of the Ultra-High-Affinity Protein–Protein Complexes of Pyocins S2 and AP41 and Their Cognate Immunity Proteins from Pseudomonas aeruginosa” (Journal of Molecular Biology, 2015).

The target in this assay is T1, pyocin S2 DNase domain (Pseudomonas aeruginosa, UniProt Q06584 556-688).
T1 construct: pyocin S2, Pseudomonas aeruginosa, residues 556-688 found in the crystal after crystallisation of the intact PyoS2-ImS2 complex with chymotrypsin; The fragment of PyoS2 in the crystal was unknown to the authors; The limits 556-688 are those found in the solved structure; also called PyoS2 DNase; PyoS2; source: crystallised in the presence of chymotrypsin
T1 sequence: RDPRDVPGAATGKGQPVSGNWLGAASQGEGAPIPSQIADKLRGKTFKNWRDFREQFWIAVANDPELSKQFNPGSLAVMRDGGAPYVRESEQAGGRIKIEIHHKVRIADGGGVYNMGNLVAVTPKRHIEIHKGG
Put plainly: crystal structure; intact PyoS2-ImS2 complex crystallised with chymotrypsin (1:100); 0.2 M sodium bromide, 20% (w/v) PEG 3350, 0.1 M Bis-tris propane pH 6.5; 1.8 Å; four copies of the complex in the asymmetric unit. Particulars: both partners purified.

B1: pyocin S2 immunity protein ImS2 (natural protein)
chain: MKSKISEYTEKEFLEFVKDIYTNNKKKFPTEESHIQAVLEFKKLTEHPSGSDLLYYPNENREDSPAGVVKEVKEWRASKGLPGFKAG
notes: immunity protein of pyocin S2 (ImS2), Pseudomonas aeruginosa, full length; the entirety of the immunity protein was present in the crystal
Consider B1, for which the binding result was “binds”.
